Experimental data: publication PMC5855949
Read-outs that look alike come from different tables or passages of the source.

How the values were obtained:
[1] = target: T1, lambda cI repressor, hexa-histidine-tagged (bacteriophage lambda, UniProt P03034 1-237); test: filter binding
[2] = target: T1, lambda cI repressor, …; test: filter binding; remark: listed apart in the source

T1 sequence (P03034 whole entry): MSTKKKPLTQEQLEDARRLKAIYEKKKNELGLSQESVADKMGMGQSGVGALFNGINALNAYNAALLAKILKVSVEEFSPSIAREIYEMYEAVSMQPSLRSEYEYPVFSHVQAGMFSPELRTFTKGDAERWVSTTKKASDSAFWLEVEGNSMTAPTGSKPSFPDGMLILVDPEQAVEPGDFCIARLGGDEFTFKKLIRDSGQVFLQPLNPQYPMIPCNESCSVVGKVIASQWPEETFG

B1: aptamer Tarap (Guu(0/-7)) (structured_RNA)
RNA: GGGAUCGACAGGGCUCCCGUUUGGCUCGGCGAAGAUCGCCUGUACUUUGGAAAGCCGAGUCGU
- Kd [1]: 518 ± 96 nM
- Kd [2]: 264 ± 24 nM
